One substance from PMC12638947 can be followed below.

Assay [1] addresses FUS-mEmerald (UniProt P35637). Description: tie line gradient analysis (FUS dilute phase concentration by confocal detection in a microfluidic flow cell); mEmerald-tagged FUS; DNAJB6 varied 0-4 µM; FUS dilute phase concentration read after phase separation.
Assay [2] concerns the target FUS-mEmerald (UniProt P35637).

Sequence of UniProt P35637 (P35637 whole entry): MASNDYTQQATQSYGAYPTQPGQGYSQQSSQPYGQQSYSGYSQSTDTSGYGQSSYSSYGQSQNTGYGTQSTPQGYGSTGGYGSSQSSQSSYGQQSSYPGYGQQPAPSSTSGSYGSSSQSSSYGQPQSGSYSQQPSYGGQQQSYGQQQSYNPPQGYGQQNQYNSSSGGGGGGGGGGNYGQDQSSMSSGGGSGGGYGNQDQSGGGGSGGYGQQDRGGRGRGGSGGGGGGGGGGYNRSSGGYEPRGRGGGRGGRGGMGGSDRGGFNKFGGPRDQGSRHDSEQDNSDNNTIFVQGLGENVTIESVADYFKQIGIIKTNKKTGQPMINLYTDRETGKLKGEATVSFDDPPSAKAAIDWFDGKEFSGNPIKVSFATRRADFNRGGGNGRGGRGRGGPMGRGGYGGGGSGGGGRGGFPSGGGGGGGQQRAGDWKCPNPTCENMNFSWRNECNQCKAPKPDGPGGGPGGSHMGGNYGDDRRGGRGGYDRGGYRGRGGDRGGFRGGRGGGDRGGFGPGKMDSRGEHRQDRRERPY

Take “purified recombinant human DNAJB6 (from UniProt O75190 1-326) (natural protein)”: the tie line gradient (µM DNAJB6 / µM FUS) in assay [1] was 3. For the same substance, in assay [2], the Young's modulus of FUS + DNAJB6 condensates by AFM, 2 h (~31 kPa) to 48 h; FUS-only condensates rise from ~9 kPa to ~25,000 kPa was found to be 40 kPa.
